Reference: article PMC4384432

Biological target: β-haemoglobin (β^h), haem-bound, from human blood (human)
Test: SEC-MALS

For “β-haemoglobin (β^h), haem-bound, from human blood (natural protein)”, the stoichiometry N was 4.
